Laboratory results: article PMC7042716 (Cell, 2020)
Where a chain is given by its changes, count along the chain named.

B1: 561_09_23 (antibody, V domains shown)
VH: QAHLFQSGAELKRPGASVRISCRADDDPYTDDDTFTKYYTHWIRQAPGQRPEWLGVISPHFARPIYSYKFQDRLTLTRDSSLTAVYLELRSLRLDDTGIYYCARDPFGERAPHYNYHMDVWGAGTTVIVSS
VL: EVVLTQSPAILSASPGDRVVLSCRASEGLDSSQLAWYRFKDGQIPRLVLFGVSNRARGTPDRFSGGGSGADFTLTISRVEREDFATYYCQRFGATPITFGGGTRLDMN
B2: 561_01_23 (antibody, V domains shown)
VH: QLVQSGGGVRRPGASVKISCETPEYTFTKYWLHWLRQAPGRGLEWMGVVSPHGGRPMFAFEFRDRLTLTRDIHTTTHYMELRGLTSDDTAVYFCARDSFGETFRGHDQPYQMDVWGGGTTVVVSS
VL: EPVLTQSPGTLSLSPGEGATLSCRARQGFSADHVAWFQKKPGRPPRLLIFEASRRASGTPERFSGGGSGPEYTLTITRVEPEDFAVYYCQSYGSITPLVFGGGTRVDVK
B3: 561_03_07 (antibody, V domains shown)
VH: B2 VH with Y25D, R41Q, Y78F, R82G, F93Y, S98P, Q111R, V121I
VL: B2 VL with L13V, G66S
B4: 561_01_29 (antibody, V domains shown)
VH: B2 VH with I18V, V114L
VL: B2 VL with A19V, A52T
B5: 561_02_12 (antibody, V domains shown)
VH: B2 VH with Y25D, R41Q, Y78F, F93Y, S98P, Q111R, V121I
VL: B2 VL with L13V, G66S, P81A
B6: 561_02_21 (antibody, V domains shown)
VH: B2 VH with R10K, R41Q, R82G, S86L, F93Y, S98P, H106R, D107E, V121I, S124T
VL: B2 VL with P2A, V3L, G66S
B7: 561_03_78 (antibody, V domains shown)
VH: B2 VH with R82G, F93Y, S98P, V121I
VL: B2 VL with G18R, G66S
B8: 561_09_71 (antibody, V domains shown)
VH: QLAQSGGGVKKPGASVKISCVTPESTFTKYWLHWVRQAPGQGFEWLGVVSPHGGRPMFANKFRDRLTLTRDIHTTTHYMELRGLTSDDTAIYYCARDSFGETFRHSGDQPYQMDVWGGGTNIVVSS
VL: EPVLTQSPGTLSLSPGERATLSCRASQGFSVDHLAWFQKRPGRPPRLLIFETSRRANGSPDRFSGSASGAEYTLTISNVEPEDFAVYYCQSYGSITPLIFGGGTRVDVK
B9: 561_08_52 (antibody, V domains shown)
VH: QLVQWGGGVKRPGASVRISCQCPEDTFTKYYIHWVRQAPGRGLEWLGMVSPHGGRPFHTSEFRDRLTMTRDIHETTHHMVLSGLGVADSGTYFCARDPLGEKSPAYSHHMDVWGGGATVIVSS
VL: AVVLTQSPVTLSVSPGETAILSCRASHGLDTRHVTWFQQKRGQAPRLLIFATYRRASGVSDRFRATDSGSATDFNLTITAVEPADFATYFCQTYGAITPITFGGGTKVDLK
B10: 561_09_89 (antibody, V domains shown)
VH: B9 VH with D71E, A87G
VL: B9 VL with T18S, I20V, Y53S, S68G, F90Y, V108L
B11: 561_03_59 (antibody, V domains shown)
VH: QRRLFQSGTEVKRPGASVRISCRADDDPYTDDDTFTKYWTHWIRQAPGQRPEWLGVISPHFARPIYSYKFQDRLTLTRDSSLTGVYLELKGLQLDDSGIYFCARDPFGDRAPHYNYHMDVWGGGTAVIVSS
VL: EVVLTQSPAILSVSPGDRVSFSCRASEGLDTSQLAWYRFKRGQIPTLVIFATSNRARGTPDRFSGSGSGADFTLTINRVEPEDFATYYCQRYGATPITFGGGTTLDKK
B12: 561_01_21 (antibody, V domains shown)
VH: QRRLFQSGTEVKRPGASVKISCRADDDPYTDDDTFTKYYTHWIRQAPGQRPEWLGVISPHFARPIYSYKFQDRLTLTRDSSLTAVYFELRGLQPDDTGIYFCARDPFGDMYPHYNYHMDVWGGGTTVIVSA
VL: EVVLTQSPAILSVSPGDRVILSCKASEGLSSSDLAWYRFKGGQIPTLVIFGTSTRARGTPDRFSGSGSGTDFTLTISRVEPEDFATYYCQRYGGTPITFGGGTTLDKK
B13: 561_02_47 (antibody, V domains shown)
V domain 1: B12 VH with F61Y, V127L
V domain 2: B12 VL with G41S, T52A, T54N, S64A, S77N
B14: 561_01_54 (antibody, V domains shown)
VH: B12 VH with R2G, G91D, P94S, Y116S
VL: B12 VL with G41S, T52A, T54N, S77N
B15: 561_10_07 (antibody, V domains shown)
VH: B11 VH with R2G, L4F, T9A, Q71R, G84A, K90Q, L94P, F101Y
VL: B11 VL with S20I, F21L, T31P, S32T, Q33H, A51G, G69E, N77T, A94G
B16: 561_02_22 (antibody, V domains shown)
VH: B12 VH with R2G, T9A, Q71R
VL: B12 VL with G51A, T54N, R78K, E80Q
B17: 561_01_33 (antibody, V domains shown)
VH: B12 VH with R2G, Q71R
VL: B12 VL with T54N, S77N, E80Q
B18: 561_02_27 (antibody, V domains shown)
VH: B12 VH with R2G, F61Y, Q71R
VL: B12 VL with T52A, T54N, S77N
B19: 561_02_10 (antibody, V domains shown)
VH: B12 VH with R2G, Y39H, F61Y, D109N
VL: B12 VL with G41R, T52A, S77N

Biological target: BG505_(SOSIP.664) Env trimer (HIV-1 BG505 (clade A), SOSIP.664 with …, stabilised)

Row | Binder | binding result
1 | B1 | binds
2 | B2 | binds
3 | B3 | binds
4 | B4 | binds
5 | B5 | binds
6 | B6 | binds
7 | B7 | binds
8 | B8 | binds
9 | B9 | binds
10 | B10 | binds
11 | B11 | binds
12 | B12 | binds
13 | B13 | binds
14 | B14 | binds
15 | B15 | binds
16 | B16 | binds
17 | B17 | binds
18 | B18 | binds
19 | B19 | binds

Biological target: YU2_(gp140) (foldon trimer) (HIV-1 (strain YU2))

Row | Binder | binding result
20 | B1 | binds
21 | B2 | binds
22 | B3 | binds
23 | B4 | binds
24 | B5 | binds
25 | B6 | binds
26 | B7 | binds
27 | B8 | binds
28 | B9 | binds
29 | B10 | binds
30 | B11 | binds
31 | B12 | binds
32 | B13 | binds
33 | B14 | binds
34 | B15 | binds
35 | B16 | binds
36 | B17 | binds
37 | B18 | binds
38 | B19 | binds
